B1: LTA4 hydrolase (Homo sapiens) (protein)
chain: MPEIVDTCSLASPASVCRTKHLHLRCSVDFTRRTLTGTAALTVQSQEDNLRSLVLDTKDLTIEKVVINGQEVKYALGERQSYKGSPMEISLPIALSKNQEIVIEISFETSPKSSALQWLTPEQTSGKEHPYLFSQCQAIHCRAILPCQDTPSVKLTYTAEVSVPKELVALMSAIRDGETPDPEDPSRKIYKFIQKVPIPCYLIALVVGALESRQIGPRTLVWSEKEQVEKSAYEFSETESMLKIAEDLGGPYVWGQYDLLVLPPSFPYGGMENPCLTFVTPTLLAGDKSLSNVIAHEISHSWTGNLVTNKTWDHFWLNEGHTVYLERHICGRLFGEKFRHFNALGGWGELQNSVKTFGETHPFTKLVVDLTDIDPDVAYSSVPYEKGFALLFYLEQLLGGPEIFLGFLKAYVEKFSYKSITTDDWKDFLYSYFKDKVDVLNQVDWNAWLYSPGLPPIKPNYDMTLTNACIALSQRWITAKEDDLNSFNATDLKDLSSHQLNEFLAQTLQRAPLPLGHIKRMQEVYNFNAINNSEIRFRWLRLCIQSKWEDAIPLALKMATEQGRMKFTRPLFKDLAAFDKSHDQAVRTYQEHKASMHPVTAMLVGKDLKVD

Experiments:
[1] = tested on: Leukotriene B4 (LTB4); test: Inhibition of leukotriene B4 (LTB4) in calcium ionophore A-23187-stimulated human blood; type: cell-based; details: Table 3 assay system
Experimental: Blood was drawn from a human volunteer, and a compound solution at one of three concentrations (Table 3) or a single concentration (Table 4), or solution alone (vehicle) was added to a one ml aliquot of the blood. After incubation for 15 minutes, 14 μg of calcium ionophore A-23187 (as the free acid) was added, and the incubation continued for another 15 minutes. The reactions were stopped by immersion of the containers into slush ice, and the samples were centrifuged at 11,000 ×g to pellet red cells and leukocytes. An aliquot of the plasma was then assayed for the presence of thromboxane B2 or leukotriene B4 by standard radioimmunoassay techniques.

[2] = target: cyclooxygenase; details: read-out: IC50, cyclooxygenase production of PGD2; cited from earlier work
[3] = target: 5-lipoxygenase; details: read-out: IC50, 5-lipoxygenase production of 5-HETE; cited from earlier work
[4] = substrate: C[C@H](N)C(=O)Nc1ccc([N+](=O)[O-])cc1; test: Kinetic parameters of LTA4 hydrolase-catalyzed hydrolysis of LTA4 and amide substrates; type: biochemical; details: other: Table 1, 50 mM TrisCl, pH 7.6, 0.1 M NaCl
Experimental: (§1) Several amino acid amides were assayed as substrates for LTA4 hydrolase. Yuan et al., Bioorg. & Med. Chem. Lett., 1:551 (1991).
(§2) ^a Determined in 50 mM TrisCl, pH 7.6, in the presence of 0.1 M NaCl, […]

[5] = substrate: O=C(Nc1ccc([N+](=O)[O-])cc1)[C@@H]1CCCN1; test: as above; type: biochemical; details: other: Table 1, 50 mM TrisCl, pH 7.6, 0.1 M NaCl
Experimental: as §1, §2

[6] = substrate: NCCCC[C@H](N)C(=O)Nc1ccc([N+](=O)[O-])cc1; test: as above; type: biochemical; details: other: Table 1, 50 mM TrisCl, pH 7.6, 0.1 M NaCl
Experimental: as §1, §2

[7] = substrate: CCCCC/C=C\C\C=C/C=C/C=C/[C@@H]1O[C@H]1CCCC(=O)O; test: as above; type: biochemical; details: other: Table 1, 50 mM TrisCl, pH 7.6, 0.1 M NaCl
Experimental: as §1, §2

[8] = substrate: CC(C)C[C@H](N)C(=O)Nc1ccc([N+](=O)[O-])cc1; test: as above; type: biochemical; details: other: Table 1, 50 mM TrisCl, pH 7.6, 0.1 M NaCl
Experimental: as §1, §2

[9] = substrate: N=C(N)NCCC[C@H](N)C(=O)Nc1ccc([N+](=O)[O-])cc1; test: purified protein, by the assay type; details: other: Table 1, 50 mM TrisCl, pH 7.6, 0.1 M NaCl

Row | Molecule | potency in the blood eicosanoid assay (in words) [1] | IC50 [2] [nM] | IC50 [3] [nM] | Km [4] [µM] | Vmax [4] [nmol/min/mg] | Km [5] [µM] | Vmax [5] [nmol/min/mg] | Km [6] [µM] | Vmax [6] [nmol/min/mg] | Km [7] [µM] | Km [8] [µM] | Vmax [8] [nmol/min/mg] | Km [9] [µM] | Vmax [9] [nmol/min/mg]
1 | COc1ccc(-n2nc(CCC(=O)N(C)O)cc2-c2ccc(Cl)cc2)cc1 [Tepoxalin] | more potent than any compound in this table | 200 | 1290 |  |  |  |  |  |  |  |  |  |  | 
2 | B1 |  |  |  | 500 | 530 | 100 | 135 | 100 | 30 | 7.6 | 300 | 135 | 200 | 135

Reference: patent publication US5455271A, “Tight-binding inhibitors of leukotriene A4 hydrolase” (The Scripps Research Institute, priority 1993, dated 1995)
